Results from article PMC4595793, “Beauveria bassiana Lipase A expressed in Komagataella (Pichia) pastoris with potential for biodiesel catalysis” (Frontiers in Microbiology, 2015).

Substrate: CCCC(=O)Oc1ccc([N+](=O)[O-])cc1
Experiment: spectrophotometric p-nitrophenol release
Assay type: biochemical, Beauveria bassiana
Conditions: 25 mM phosphate buffer pH 6.0, 50°C, 2 min, free enzyme, 0.05% Triton X-100 in the general assay, Hill coefficient n printed 1.46
Text: spectrophotometric p-nitrophenol release on BbLA (Beauveria bassiana lipase A)

B1: BbLA (Beauveria bassiana lipase A) (Beauveria bassiana ARSEF 2860) (protein)
chain: LSADIDGAPLIHLDYATYRGSRVAGAGVDQFLGMRFAKPPLGDLRFRAPEEPFHEDQVQDATKLGALCVGTVDGSGVSPNDVFGEDCLFANLFKPANATTASKLPVWVFIQGGGYAHNSNGNYNGTQIVQQSGGNVVFVSFNYRVGVLGFLASEEVRKDGALNAGLLDQRLFLKWVQKYIGQFGGDPNHVVIHGDSAGGGSVSHHLTAYGGNDKENLFVGGIPESPFWPTQRKVDQMEFQYTRLLRDTKCDSLDCLRKLDVGALGNASQPSPFPEAHTEDPAPLWYWLPVIDGDLVQDNMYKQFLTGRFKRVPLLVGADTDEGTLFAVNASTETEVSSFLRANYPRLQEWQLDIVSTIYPKMKPLPKHAAYFPSAAAVYGDSTFVCAGNTMSDAISAFVGPDKLWNYRYNVADPEQVAEGFGVPHVSELGAIFGPDNIRGHEAKSLRTTNAPIVPVTMAYFTSFVRFLDPNTSRQPGSPLWQNWGAFVGEQGQRMRLETNNTAMETVPFDLVTKCALWKLLAESMDV
notes: 19-residue signal peptide removed (precursor 546 aa, 1,641 bp); alpha-factor secretion signal, C-terminal 6His (554 aa printed; b43 says N-terminal His); secreted by Komagataella pastoris GS115, N-glycosylated, about 78 kDa (60 kDa after EndoHf); Octyl-sepharose purified
Question: B1 was tested. Which Km did it give?
Answer: 0.5546 µM
